Here are results for 22 molecules from patent US20260055205A1 (published 2026).

The chains are these.
B1: CD3.103 (bispecific antibody, V domains shown)
VH: EVQLLESGGGIVQPGGSLKLSCAASGFTFNTYAMNWVRQAPGKGLEWVGRIRSKYNNGATYYADSVKGRFTISRDDSKNTVYLQMNSLKTEDTAVYYCVRHENFGNSYVSWFAHWGQGTLVTVSS
VL: ELVVTQEPSLTVSPGGTVTLTCRSSNGAVTSSNYANWVQQKPGQAPRGLIGGTNKRAPGTPARFSGSLLGGKAALTLSGVQPEDEAVYYCALWYPNLWVFGGGTKLTVL
notes: paTCE with PSMA.5; also called AC3432; A49G, Y52cG, D65G, N82bS
B2: CD3.98 (bispecific antibody, V domains shown)
VH: EVQLLESGGGIVQPGGSLKLSCAASGFTFNTYAMNWVRQAPGKGLEWVARIRSKYNNYATYYADSVKDRFTISRDDSKNTVSLQMNNLKTEDTAVYYCVRHENFGNSYVSWFAHWGQGTLVTVSS
VL: ELVVTQEPSLTVSPGGTVTLTCRSSNGAVTSSNYANWVQQKPGQAPRGLIGGTNKRAPGTPARFSGSLLGGKAALTLSGVQPEDEAVYYCALWYPNLWVFGGGTKLTVL
notes: paTCE with PSMA.5; also called AC3427; Y79S
B3: CD3.102 (bispecific antibody, V domains shown)
VH: EVQLLESGGGIVQPGGSLKLSCAASGFTFNTYAMNWVRQAPGKGLEWVARIRSKYNNYATYYADSVKDRFTISRDDSKNTVYLQMNYLKTEDTAVYYCVRHENFGNSYVSWFAHWGQGTLVTVSS
VL: ELVVTQEPSLTVSPGGTVTLTCRSSNGAVTSSNYANWVQQKPGQAPRGLIGGTNKRAPGTPARFSGSLLGGKAALTLSGVQPEDEAVYYCALWYPNLWVFGGGTKLTVL
notes: paTCE with PSMA.5; also called AC3431; N82bY
B4: CD3.110 (bispecific antibody, V domains shown)
VH: EVQLLESGGGIVQPGGSLKLSCAASGFTFNTYAMNWVRQAPGKGLEWVARIRSKYNNYATYYADSVKDRFTISRDDSKNTVYLQMNNLKTEDTAVYYCVRHENFGNSYVSWFAHWGQGTLVTVSS
VL: ELVVTQEPSLTVSPGGTVTLTCRSSNGAVTSSNYANWVQQKPGQAPRGLIGGTNKRAPGTPARFSGSTLGGKAALTLSGVQPEDEAVYYCALWYPNLWVFGGGTKLTVL
notes: paTCE with PSMA.5; also called AC3439; L66T
B5: CD3.100 (bispecific antibody, V domains shown)
VH: EVQLLESGGGIVQPGGSLKLSCAASGFTFNTYAMNWVRQAPGKGLEWVARIRSKYNNYATYYADSVKDRFTISRDDSKNTVYLQMNQLKTEDTAVYYCVRHENFGNSYVSWFAHWGQGTLVTVSS
VL: ELVVTQEPSLTVSPGGTVTLTCRSSNGAVTSSNYANWVQQKPGQAPRGLIGGTNKRAPGTPARFSGSLLGGKAALTLSGVQPEDEAVYYCALWYPNLWVFGGGTKLTVL
notes: paTCE with PSMA.5; also called AC3429; N82bQ
B6: CD3.99 (bispecific antibody, V domains shown)
VH: EVQLLESGGGIVQPGGSLKLSCAASGFTFNTYAMNWVRQAPGKGLEWVARIRSKYNNYATYYADSVKDRFTISRDDSKNTVYLQMNELKTEDTAVYYCVRHENFGNSYVSWFAHWGQGTLVTVSS
VL: ELVVTQEPSLTVSPGGTVTLTCRSSNGAVTSSNYANWVQQKPGQAPRGLIGGTNKRAPGTPARFSGSLLGGKAALTLSGVQPEDEAVYYCALWYPNLWVFGGGTKLTVL
notes: paTCE with PSMA.5; also called AC3428; N82bE
B7: CD3.104 (bispecific antibody, V domains shown)
VH: EVQLLESGGGIVQPGGSLKLSCAASGFTFNTYAMNWVRQAPGKGLEWVARIRSKYNNYATYYADSVKDRFTISRDDSKNTVYLQMNNLKTEDTAVYYCVRHENFGNSYVSWFAHWGQGTLVTVSS
VL: ELVVTQEPSLTVSPGGTVTLTCRSSNGAVTSSNYANWVQQKPGQAPRGLIGGTNKRAPGTPARFSGSLQGGKAALTLSGVQPEDEAVYYCALWYPNLWVFGGGTKLTVL
notes: paTCE with PSMA.5; also called AC3433; L67Q
B8: CD3.101 (bispecific antibody, V domains shown)
VH: EVQLLESGGGIVQPGGSLKLSCAASGFTFNTYAMNWVRQAPGKGLEWVARIRSKYNNYATYYADSVKDRFTISRDDSKNTVYLQMNSLKTEDTAVYYCVRHENFGNSYVSWFAHWGQGTLVTVSS
VL: ELVVTQEPSLTVSPGGTVTLTCRSSNGAVTSSNYANWVQQKPGQAPRGLIGGTNKRAPGTPARFSGSLLGGKAALTLSGVQPEDEAVYYCALWYPNLWVFGGGTKLTVL
notes: paTCE with PSMA.5; also called AC3430; N82bS
B9: CD3.107 (bispecific antibody, V domains shown)
VH: EVQLLESGGGIVQPGGSLKLSCAASGFTFNTYAMNWVRQAPGKGLEWVARIRSKYNNYATYYADSVKDRFTISRDDSKNTVYLQMNNLKTEDTAVYYCVRHENFGNSYVSWFAHWGQGTLVTVSS
VL: ELVVTQEPSLTVSPGGTVTLTCRSSNGAVTSSNYANWVQQKPGQAPRGLIGGTNKRAPGTPARFSGSSLGGKAALTLSGVQPEDEAVYYCALWYPNLWVFGGGTKLTVL
notes: paTCE with PSMA.5; also called AC3436; L66S
B10: CD3.106 (bispecific antibody, V domains shown)
VH: EVQLLESGGGIVQPGGSLKLSCAASGFTFNTYAMNWVRQAPGKGLEWVARIRSKYNNYATYYADSVKDRFTISRDDSKNTVYLQMNNLKTEDTAVYYCVRHENFGNSYVSWFAHWGQGTLVTVSS
VL: ELVVTQEPSLTVSPGGTVTLTCRSSNGAVTSSNYANWVQQKPGQAPRGLIGGTNKRAPGTPARFSGSLDGGKAALTLSGVQPEDEAVYYCALWYPNLWVFGGGTKLTVL
notes: paTCE with PSMA.5; also called AC3435; L67D
B11: CD3.109 (bispecific antibody, V domains shown)
VH: EVQLLESGGGIVQPGGSLKLSCAASGFTFNTYAMNWVRQAPGKGLEWVARIRSKYNNYATYYADSVKDRFTISRDDSKNTVYLQMNNLKTEDTAVYYCVRHENFGNSYVSWFAHWGQGTLVTVSS
VL: ELVVTQEPSLTVSPGGTVTLTCRSSNGAVTSSNYANWVQQKPGQAPRGLIGGTNKRAPGTPARFSGSNLGGKAALTLSGVQPEDEAVYYCALWYPNLWVFGGGTKLTVL
notes: paTCE with PSMA.5; also called AC3438; L66N
B12: CD3.105 (bispecific antibody, V domains shown)
VH: EVQLLESGGGIVQPGGSLKLSCAASGFTFNTYAMNWVRQAPGKGLEWVARIRSKYNNYATYYADSVKDRFTISRDDSKNTVYLQMNNLKTEDTAVYYCVRHENFGNSYVSWFAHWGQGTLVTVSS
VL: ELVVTQEPSLTVSPGGTVTLTCRSSNGAVTSSNYANWVQQKPGQAPRGLIGGTNKRAPGTPARFSGSLLEGKAALTLSGVQPEDEAVYYCALWYPNLWVFGGGTKLTVL
notes: paTCE with PSMA.5; also called AC3434; G68E
B13: CD3.108 (bispecific antibody, V domains shown)
VH: EVQLLESGGGIVQPGGSLKLSCAASGFTFNTYAMNWVRQAPGKGLEWVARIRSKYNNYATYYADSVKDRFTISRDDSKNTVYLQMNNLKTEDTAVYYCVRHENFGNSYVSWFAHWGQGTLVTVSS
VL: ELVVTQEPSLTVSPGGTVTLTCRSSNGAVTSSNYANWVQQKPGQAPRGLIGGTNKRAPGTPARFSGSKLGGKAALTLSGVQPEDEAVYYCALWYPNLWVFGGGTKLTVL
notes: paTCE with PSMA.5; also called AC3437; L66K
B14: PSMA.250 (bispecific antibody, V domains shown)
VH: QVQLVESGGGVVQPGRSLRLSCAASGRTFGIYVMGWYRQAPGKEREFVAAMSWSGSNRKVSDSVKGRFTISRDNSKNTLYLQMNSLRAEDTAVYYCAASNKLYGRTWYDFNESDYWGQGTQVTVSS
notes: TCE with CD3.23; also called AC3461
B15: PSMA.255 (bispecific antibody, V domains shown)
VH: QVQLVESGGGVVQPGRSLRLSCAASGRTFGIYVMGWYRQAPGKEREFVAAISWSGSNRKVSDSVKGRFTISRDNSKNTLYLQMNSLRAEDTAVYYCAASNRYYGRTWYDFNESDYWGQGTQVTVSS
notes: TCE with CD3.23; also called AC3466
B16: PSMA.253 (bispecific antibody, V domains shown)
VH: QVQLVESGGGVVQPGRSLRLSCAASGRTFGIYVMGWYRQAPGKEREFVAAISWSGSNRKVSDSVKGRFTISRDNSKNTLYLQMNSLRAEDTAVYYCAASNRWYGRTWYDFNESDYWGQGTQVTVSS
notes: TCE with CD3.23; also called AC3464
B17: PSMA.256 (bispecific antibody, V domains shown)
VH: QVQLVESGGGVVQPGRSLRLSCAASGRTFGIYVMGWYRQAPGKEREFVAAMSWSGSNRKVSDSVKGRFTISRDNSKNTLYLQMNSLRAEDTAVYYCAASNRLYGRTWYDFNESDYWGQGTQVTVSS
notes: TCE with CD3.23; also called AC3467
B18: PSMA.257 (bispecific antibody, V domains shown)
VH: QVQLVESGGGVVQPGRSLRLSCAASGRTFGIYVMGWYRQAPGKEREFVAAISWSGSNRKVSDSVKGRFTISRDNSKNTLYLQMNSLRAEDTAVYYCAASNRLYGRTWYDFNESDYWGQGTQVTVSS
notes: TCE with CD3.23; also called AC3468
B19: PSMA.251 (bispecific antibody, V domains shown)
VH: QVQLVESGGGVVQPGRSLRLSCAASGRTFGIYVMGWYRQAPGKEREFVAAISWSGSNRKVSDSVKGRFTISRDNSKNTLYLQMNSLRAEDTAVYYCAASNKLYGRTWYDFNESDYWGQGTQVTVSS
notes: TCE with CD3.23; also called AC3462
B20: PSMA.254 (bispecific antibody, V domains shown)
VH: QVQLVESGGGVVQPGRSLRLSCAASGRTFGIYVMGWYRQAPGKEREFVAAMSWSGSNRKVSDSVKGRFTISRDNSKNTLYLQMNSLRAEDTAVYYCAASNRYYGRTWYDFNESDYWGQGTQVTVSS
notes: TCE with CD3.23; also called AC3465
B21: PSMA.260 (bispecific antibody, V domains shown)
VH: QVQLVESGGGVVQPGRSLRLSCAASGRTFGIYAMGWVRQAPGKEREFVGAISWSGSNRKVSDSVKGRFTISRDNSKNTLYLQMNSLRAEDTAVYYCAASNKLYGRTWYDFNESDYWGQGTQVTVSS
notes: TCE with CD3.23; also called AC3469
B22: PSMA.252 (bispecific antibody, V domains shown)
VH: QVQLVESGGGVVQPGRSLRLSCAASGRTFGIYVMGWYRQAPGKEREFVAAMSWSGSNRKVSDSVKGRFTISRDNSKNTLYLQMNSLRAEDTAVYYCAASNRWYGRTWYDFNESDYWGQGTQVTVSS
notes: TCE with CD3.23; also called AC3463

T1 sequence (P07766 23-126 limits assumed): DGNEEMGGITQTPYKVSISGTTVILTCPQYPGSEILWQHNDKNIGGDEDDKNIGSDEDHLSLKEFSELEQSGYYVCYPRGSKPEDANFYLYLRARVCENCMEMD

The first test concerns the target T1, human CD3 epsilon (human, UniProt P07766 23-126, limits assumed).
T1 construct: also called huCD3e
The experiment in a line: Octet, crude lysate. On the procedure:
Pool 2 consisted of paTCE molecules each containing PSMA.262 and one of 64 CD3.23 mutation combination variants. Stability and affinity of the individually expressed molecules in the form of crude lysate was evaluated by Octet. […] The binding of these anti-CD3 molecules (CD3.227, CD3.228, CD3.229 and CD3.230) to human and cynomolgus CD3 was measured by Octet and the Tm was measured by Differential Scanning Fluorimetry. All variants were paired with PSMA.262 except for CD3.23 which was paired with PSMA.5.
On the technique in general: Biolayer interferometry detects binding as a change in optical thickness at a sensor tip.
Broadly, the Kd is the free concentration of one partner at which half of the binding sites on the other are occupied at equilibrium, for simple one-to-one binding. For B1, the Kd worked out at 13.5 nM.

In a further test the target is T1, human CD3 epsilon. Nature of the test: Octet, crude lysate. The source holds these as a separate data set. From the text: To achieve this, Pool 1 was created, which included 74 paTCE molecules, each containing PSMA.5 and one of the 74 CD3.23 mutation variants. Single mutations were chosen based on analyses including CD3.23 PTE score analysis (using internal PTE algorithm v12) and structural analysis. Structural considerations included: possible contact disruption, anticipated steric clashes, side chain charge maintenance and possible pockets filling. Stability and affinity of the individually expressed molecules in the form of crude lysate was evaluated by Octet (ForteBio).
Molecule B2 came in with a Kd of 9.6 nM.

B3 gave a Kd of 5.2 nM.

In the case of B4, the Kd was found to be 8.9 nM.

B5 gave a Kd of 7.1 nM.

With B6, the Kd is 5.9 nM.

On to B7, for which binding was characterised by a dissociation constant (Kd) of 4.6 nM.

For B8, the Kd was found to be 4.8 nM.

For the molecule B9, the affinity, expressed as Kd, was 7.3 nM.

The molecule B10 showed a Kd of 6.1 nM.

The molecule B11 gave a Kd of 8.3 nM.

In turn, B1 had a Kd of 11.4 nM.

B12 had a dissociation constant (Kd) of 4.9 nM.

B13 showed a dissociation constant (Kd) of 3.2 nM.

In a further test the target is T2, human PSMA (human, UniProt Q04609 44-750, limits assumed).
T2 construct: also called huPSMA; hPSMA
T2 sequence (Q04609 44-750 limits assumed): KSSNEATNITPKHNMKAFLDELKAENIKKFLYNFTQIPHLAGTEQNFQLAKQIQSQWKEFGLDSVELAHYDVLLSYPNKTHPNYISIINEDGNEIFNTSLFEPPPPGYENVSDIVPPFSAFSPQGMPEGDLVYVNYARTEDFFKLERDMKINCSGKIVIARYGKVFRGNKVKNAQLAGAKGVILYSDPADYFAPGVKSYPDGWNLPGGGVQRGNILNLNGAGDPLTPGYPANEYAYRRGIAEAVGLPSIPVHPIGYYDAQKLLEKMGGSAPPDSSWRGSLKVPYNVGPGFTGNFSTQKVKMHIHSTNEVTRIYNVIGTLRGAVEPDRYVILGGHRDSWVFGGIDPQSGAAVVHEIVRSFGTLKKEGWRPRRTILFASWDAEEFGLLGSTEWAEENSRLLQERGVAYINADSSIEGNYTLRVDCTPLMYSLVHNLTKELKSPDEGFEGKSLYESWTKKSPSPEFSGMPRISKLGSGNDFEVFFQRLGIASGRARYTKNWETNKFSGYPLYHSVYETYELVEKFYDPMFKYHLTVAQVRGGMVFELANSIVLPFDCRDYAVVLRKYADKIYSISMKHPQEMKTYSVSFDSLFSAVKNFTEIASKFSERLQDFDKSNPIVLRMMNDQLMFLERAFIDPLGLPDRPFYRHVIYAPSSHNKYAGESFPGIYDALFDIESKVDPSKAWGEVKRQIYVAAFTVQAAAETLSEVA
Nature of the test: binding screen.
In the case of B14, binding was put at a Kd of 6.2 nM.

B15 showed a Kd of 18.9 nM.

Molecule B16 displayed a dissociation constant (Kd) of 8.5 nM.

The molecule B17 had an equilibrium dissociation constant (Kd) of 3.4 nM.

B18: the affinity, expressed as Kd, was 2.3 nM.

The molecule B19 displayed a Kd of 5.1 nM.

In turn, B20 yielded a Kd of 41 nM.

The molecule B21 had a dissociation constant (Kd) of 11.4 nM.

Molecule B22 showed a Kd of 15.9 nM.
